Article PMC5154250 (Biochemistry, 2016)

Key:
[1] = target: Drosophila melanogaster photoreceptor retinol dehydrogenase (PDH) isoform C (Drosophila melanogaster); assay: crystal structure
[2] = target: T1, PDH (photoreceptor retinol dehydrogenase, isoform C; PDHc) (Drosophila melanogaster, UniProt B7Z062); assay: differential scanning fluorimetry; format: binding
T1 sequence (B7Z062 2-261): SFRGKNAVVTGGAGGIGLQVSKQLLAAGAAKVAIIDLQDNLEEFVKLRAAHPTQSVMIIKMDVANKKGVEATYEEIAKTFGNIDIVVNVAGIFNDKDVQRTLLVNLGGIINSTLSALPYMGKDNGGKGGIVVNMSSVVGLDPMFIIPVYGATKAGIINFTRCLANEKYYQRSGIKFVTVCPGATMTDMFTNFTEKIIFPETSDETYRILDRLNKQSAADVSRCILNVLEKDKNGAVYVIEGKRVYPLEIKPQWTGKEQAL

Compound | stoichiometry N [1] | Kd [2] [µM]
Drosophila melanogaster photoreceptor retinol dehydrogenase (PDH) isoform C (enzyme) | 2 | –
NC(=O)c1ccc[n+]([C@@H]2O[C@H](COP(=O)([O-])OP(=O)(O)OC[C@H]3O[C@@H](n4cnc5c(N)ncnc54)[C@H](O)[C@@H]3O)[C@@H](O)[C@H]2O)c1 [NAD^+] | – | 170 ± 30
